Source: US20150291952, “RNA APTAMER ISOLATION VIA DUAL-CYCLE (RAPID) SELECTION” (CORNELL UNIVERSITY, published 2015)

Columns and labels:
[1] = target: T1, CHK2 (UniProt O96017 O96017:1-543); assay: EMSA; F-EMSA, Hill fit; 25 mM Tris pH 8.0, 10 mM NaCl, 25 mM KCl, 5 mM MgCl2, 10 ug/ml yeast tRNA, room temp; binding to contaminant not ruled out; settings: tags: hexahistidine; expressed in E. coli BL21(DE3)-RIPL, Ni-NTA, ~90-95% pure; label: 3'-fluorescein (fluorescein 5-thiosemicarbazide)
Experimental: (§1) The RNA samples were 3′-end labelled with fluorescein 5-thiosemicarbazide (Invitrogen) as described previously (Pagano et al. 2007). 50 μL binding reactions were prepared with 2 nM fluorescently-labelled RNA and decreasing amounts of protein (2000 to 0 nM) in binding buffer containing 0.01% IGEPAL CA630, 10 μg/ml yeast tRNA, and 3 U of SUPERase•In RNase Inhibitor. Reactions were prepared in black 96-well half area microplates (Corning) and incubated at room temperature for 2 hours. The plates were scanned on a Synergy H1 microplate reader (BioTek) using the Ex: 485/20 Em: 528/20 filter set to determine the Fluorescence Polarization (FP). The polarization “P” is determined from the total parallel and perpendicular polarized fluorescence according to:
(§2) In order to confirm that the two methods had independently enriched the same aptamer, we tested the unambiguous top-ranked SELEX/RAPID candidate for CHK2 binding, hereafter referred to as C6M1. […] The calculated fraction bound curve for the gel shift is also shown in FIG. 6B as the solid line (left axis). […] In order to ensure that the observed binding was not a gel artefact, we also performed a Fluorescence Polarization (FP) assay. […]

[2] = target: T1, CHK2; assay: FP; same samples as F-EMSA, Hill fit; 5 mM MgCl2, yeast tRNA, room temp; settings: tags: hexahistidine; expressed in E. coli BL21(DE3)-RIPL, Ni-NTA, ~90-95% pure; label: 3'-fluorescein (fluorescein 5-thiosemicarbazide)
Experimental: as §1, §2

T1 sequence (O96017 whole entry, one chain of several): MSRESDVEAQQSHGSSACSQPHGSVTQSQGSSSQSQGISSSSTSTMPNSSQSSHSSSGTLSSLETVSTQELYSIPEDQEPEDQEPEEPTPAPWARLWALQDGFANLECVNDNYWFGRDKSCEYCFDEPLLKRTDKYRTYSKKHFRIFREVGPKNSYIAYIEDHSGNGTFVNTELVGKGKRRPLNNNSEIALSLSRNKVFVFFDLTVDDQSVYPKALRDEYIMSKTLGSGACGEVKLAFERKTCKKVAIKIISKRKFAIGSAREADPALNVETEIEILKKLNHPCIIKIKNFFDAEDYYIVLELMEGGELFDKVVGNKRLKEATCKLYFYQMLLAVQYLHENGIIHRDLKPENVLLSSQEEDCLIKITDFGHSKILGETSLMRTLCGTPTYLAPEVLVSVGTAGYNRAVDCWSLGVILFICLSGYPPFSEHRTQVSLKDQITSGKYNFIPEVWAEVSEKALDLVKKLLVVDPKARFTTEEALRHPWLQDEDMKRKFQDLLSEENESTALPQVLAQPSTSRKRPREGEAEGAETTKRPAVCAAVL

B1: C6M1 (ssRNA)
RNA: GGGAAUGGAUCCACAUCUACGAAUUCGAUCGGUUCCAACGCUCUGUCGCCUAAGUGAACAGAUGAAGAAAAAAUAGCCCAAUAAGAGGCAACAAUCUUUCACUGCAGACUUGACGAAGCUU
modifications: RNA transcript; SEQ:21 is the random region, assayed RNA also carries both library constant regions (reverse complement of the SEQ:22 flanks) [positions count without the 26-nt 5-prime fixed region]
B1 gave a Kd [1] of 180 nM and a Kd [2] of 299 nM.
